Laboratory results: article PMC11535432

Target: inactive mutant of SARS-CoV-2 main protease M^pro (His41Ala, Cys145Ala) (SARS-CoV-2)
Test: native MS

Substance | stoichiometry N (peptide per M^pro dimer)
substrate peptide nsp5/6 (11-mer, P6 to P5') (from UniProt P0DTD1 3564-3574) | < 2
substrate peptide nsp14/15 (11-mer, P6 to P5') (from UniProt P0DTD1 6447-6457) | < 2
